Assay results from US11130803B2, “Isoform-selective TGFβ1 inhibitors and use thereof” (Scholar Rock, Inc., priority 2018, dated 2021).
Read-outs that look alike come from different tables or passages of the source.

Experiments:
hGARP-proTGFβ1 = biological target: T1, hGARP-proTGFβ1 (Homo sapiens, UniProt P01137); assay: MSD-SET solution equilibrium titration binding; details: MSD-SET at equilibrium, hIgG4, human complex; in M
T1 construct: made in house
Description: (§1) Solution Equilibrium Titration (SET): The SET is an assay whereby binding between two molecules (such as an antigen and an antibody that binds the antigen) can be measured at equilibrium in a solution. For example, Meso-Scale Discovery (“MSD”)-based SET, or MSD-SET, is a useful mode of determining dissociation constants for particularly high-affinity protein-protein interactions at equilibrium, such as picomolar-affinity antibodies binding to their antigens (see, for example: Ducata et al. (2015) J Biomolecular Screening 20(10): 1256-1267). The SET-based assays are particularly useful for determining KD values of antibodies with sub-nanomolar (e.g., picomolar) affinities.
(§2) In view of this, it is contemplated that assays that measure binding affinities of such antibodies at equilibrium may more accurately represent the mode of target engagement in vivo. Thus, MSD-SET-based binding assays (or other suitable assays) may be performed, as exemplified in Table 9 below.
(§3) Solution equilibrium titration (“SET”) is an assay whereby binding between two molecules (such as an antigen and an antibody that binds the antigen) can be measured at equilibrium in a solution. For example, Meso-Scale Discovery (“MSD”)-based SET, or MSD-SET, is a useful mode of determining dissociation constants for particularly high-affinity protein-protein interactions at equilibrium (see, for example: Ducata et al. (2015) J Biomolecular Screening 20(10): 1256-1267). The SET-based assays are particularly useful for determining KD values of antibodies with sub-nanomolar (e.g., picomolar) affinities.
(§4) For solution equilibrium titration-based binding assays, protein complexes that comprise one of the presenting molecules such as those shown above may be employed as antigen (presenting molecule-TGFβ1 complex, or an LLC). Test antibodies are allowed to form antigen-antibody complex in solution. Antigen-antibody reaction mixtures are incubated to allow an equilibrium to be reached; the amount of the antigen-antibody complex present in the assay reactions can be measured by suitable means well known in the art. As compared to BLI-based assays, SET-based assays are less affected by on/off rates of the antigen-antibody complex, allowing sensitive detection of very high affinity interactions.

hLRRC33-proTGFβ1 = biological target: T2, hLRRC33-proTGFβ1 (Homo sapiens, UniProt P01137); assay: MSD-SET solution equilibrium titration binding; details: MSD-SET at equilibrium, hIgG4, human complex; in M
T2 construct: made in house
T2 sequence (P01137 30-390): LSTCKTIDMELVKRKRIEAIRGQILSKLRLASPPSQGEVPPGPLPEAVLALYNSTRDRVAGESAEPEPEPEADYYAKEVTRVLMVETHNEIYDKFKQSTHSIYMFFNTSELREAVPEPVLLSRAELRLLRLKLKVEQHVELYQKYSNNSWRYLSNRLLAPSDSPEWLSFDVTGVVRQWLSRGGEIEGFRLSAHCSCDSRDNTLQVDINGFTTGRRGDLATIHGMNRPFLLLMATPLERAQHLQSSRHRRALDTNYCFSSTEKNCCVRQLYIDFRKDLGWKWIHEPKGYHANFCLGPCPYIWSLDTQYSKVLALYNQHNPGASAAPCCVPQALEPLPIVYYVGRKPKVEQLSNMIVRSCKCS
T2 sequence (Q86YC3 19-650 partner limits assumed): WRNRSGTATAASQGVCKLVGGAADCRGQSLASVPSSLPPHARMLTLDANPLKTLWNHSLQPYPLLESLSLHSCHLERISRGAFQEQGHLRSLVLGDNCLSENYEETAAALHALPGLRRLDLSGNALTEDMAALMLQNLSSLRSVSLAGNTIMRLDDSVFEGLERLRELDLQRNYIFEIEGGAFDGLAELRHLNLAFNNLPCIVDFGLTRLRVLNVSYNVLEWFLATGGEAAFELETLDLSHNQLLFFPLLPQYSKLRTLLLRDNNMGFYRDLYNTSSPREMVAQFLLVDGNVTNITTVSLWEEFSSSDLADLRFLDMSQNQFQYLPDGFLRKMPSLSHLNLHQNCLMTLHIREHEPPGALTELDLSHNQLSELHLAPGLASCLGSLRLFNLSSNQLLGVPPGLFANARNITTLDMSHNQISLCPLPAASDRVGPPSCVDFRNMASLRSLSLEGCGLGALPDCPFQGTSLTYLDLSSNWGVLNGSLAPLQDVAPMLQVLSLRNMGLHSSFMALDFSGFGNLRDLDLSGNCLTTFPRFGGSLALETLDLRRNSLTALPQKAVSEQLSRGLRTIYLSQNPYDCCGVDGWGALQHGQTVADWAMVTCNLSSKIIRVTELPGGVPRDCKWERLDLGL
Description: as §1, §2, §3, §4

hLTBP3-proTGFβ1 = biological target: T3, hLTBP3-proTGFβ1 (Homo sapiens, UniProt P01137); assay: MSD-SET solution equilibrium titration binding; details: MSD-SET at equilibrium, hIgG4, human complex; in M
T3 construct: made in house; host or cells: Expi293F cells, transient co-transfection
T3 sequence (P01137 30-390): as the sequence (P01137 30-390) above
T3 sequence (Q9NS15 866-1039 partner limits assumed): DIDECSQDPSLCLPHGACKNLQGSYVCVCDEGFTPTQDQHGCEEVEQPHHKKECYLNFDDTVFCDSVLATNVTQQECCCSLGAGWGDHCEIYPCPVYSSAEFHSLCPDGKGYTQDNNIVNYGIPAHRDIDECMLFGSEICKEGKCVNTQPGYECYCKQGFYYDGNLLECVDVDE
Description: as §1, §2, §3, §4

hLTBP1-proTGFβ1 = biological target: T4, hLTBP1-proTGFβ1 (Homo sapiens, UniProt P01137); assay: MSD-SET solution equilibrium titration binding; details: MSD-SET at equilibrium, hIgG4, human complex; in M
T4 construct: made in house; host or cells: Expi293F cells, transient co-transfection
T4 sequence (P01137 30-390): as the sequence (P01137 30-390) above
T4 sequence (Q14766 873-1507 partner): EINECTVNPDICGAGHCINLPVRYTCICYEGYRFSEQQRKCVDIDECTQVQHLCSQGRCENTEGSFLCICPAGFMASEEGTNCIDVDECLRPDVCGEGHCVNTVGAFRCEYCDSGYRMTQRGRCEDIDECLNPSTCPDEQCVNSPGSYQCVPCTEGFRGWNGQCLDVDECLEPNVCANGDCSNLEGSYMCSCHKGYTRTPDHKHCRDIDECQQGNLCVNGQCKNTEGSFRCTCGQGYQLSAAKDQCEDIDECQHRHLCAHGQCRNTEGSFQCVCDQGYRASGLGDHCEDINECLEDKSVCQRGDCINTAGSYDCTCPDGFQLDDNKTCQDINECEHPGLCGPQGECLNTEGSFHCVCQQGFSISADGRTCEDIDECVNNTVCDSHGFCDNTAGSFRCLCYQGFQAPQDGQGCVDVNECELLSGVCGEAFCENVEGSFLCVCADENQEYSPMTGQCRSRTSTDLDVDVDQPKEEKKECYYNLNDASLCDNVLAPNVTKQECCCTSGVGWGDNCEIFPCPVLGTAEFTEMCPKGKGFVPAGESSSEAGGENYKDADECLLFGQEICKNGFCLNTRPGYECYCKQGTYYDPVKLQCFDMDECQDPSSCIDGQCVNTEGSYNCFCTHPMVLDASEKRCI
Description: as §1, §2, §3, §4

[1] = system: hLTBP1-/hLTBP3-proTGFβ1 vs hGARP-/hLRRC33-proTGFβ1 complexes; assay: Solution equilibrium titration: relative affinity (bias) LTBP complexes vs cell-associated complexes; assay type: binding, human; details: for Kd / (H) G/D (fold bias): MSD-SET; for (H) G/D (fold bias): ratio of average KD cell-associated / matrix-associated
Description: Context-biased: As used herein, “context-biased antibodies” refer to a type of conformational antibodies that binds an antigen with differential affinities when the antigen is associated with (i.e., bound to or attached to) an interacting protein or a fragment thereof. Thus, a context-biased antibody that specifically binds an epitope within proTGFβ1 may bind LTBP1-proTGFβ1, LTBP3-proTGFβ1, GARP-proTGFβ1 and LRRC33-proTGFβ1 with different affinities. […] Relative affinities of [matrix-associated complexes]: [cell-associated complexes] may be obtained by taking average KD values of the former, taking average KD values of the latter, and calculating the ratio of the two, as exemplified herein.
In a yet further aspect, the present disclosure provides context-biased TGFβ1 inhibitors. The context-biased antibodies include LTBP-biased antibodies with higher affinities for ECM-associated LLCs than for cell-associated LLCs wherein the affinities are measured at equilibrium.

[2] = system: matrix-associated (LTBP1/LTBP3) and cell-associated (GARP/LRRC33) proTGFβ1 complexes; assay: Octet: average KD and fold bias, matrix- vs cell-associated complexes; assay type: binding, human; details: average KD of (B) and (C), read-out: (D) ECM AVRG
[3] = average KD of (B) and (C), read-out: (D) ECM AVRG
[4] = average KD of (E) and (F), read-out: (G) Cell AVRG

T1 sequence (P01137 30-390): as the sequence (P01137 30-390) above
T1 sequence (Q14392 20-627 partner limits assumed): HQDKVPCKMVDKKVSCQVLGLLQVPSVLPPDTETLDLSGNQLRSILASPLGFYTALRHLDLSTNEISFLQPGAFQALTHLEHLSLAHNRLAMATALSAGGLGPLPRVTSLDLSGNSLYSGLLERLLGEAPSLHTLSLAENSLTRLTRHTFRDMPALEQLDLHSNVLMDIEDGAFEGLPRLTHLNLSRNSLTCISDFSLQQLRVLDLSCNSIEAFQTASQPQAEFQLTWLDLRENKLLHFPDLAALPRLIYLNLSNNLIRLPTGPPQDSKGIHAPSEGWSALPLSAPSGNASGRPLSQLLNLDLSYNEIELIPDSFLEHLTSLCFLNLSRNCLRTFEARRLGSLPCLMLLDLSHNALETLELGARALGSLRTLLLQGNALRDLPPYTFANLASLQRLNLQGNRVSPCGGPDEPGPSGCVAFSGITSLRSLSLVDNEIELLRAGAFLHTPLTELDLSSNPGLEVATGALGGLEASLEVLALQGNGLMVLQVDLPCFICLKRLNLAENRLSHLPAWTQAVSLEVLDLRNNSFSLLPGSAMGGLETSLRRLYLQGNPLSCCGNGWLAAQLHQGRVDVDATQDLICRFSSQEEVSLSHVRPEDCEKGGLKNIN

| Molecule | (E) hGARP, Cell-associated proTGFβ1 KD (hGARP-proTGFβ1) | (F) hLRRC33, Cell-associated proTGFβ1 KD (hLRRC33-proTGFβ1) | (C) hLTBP3, Matrix-associated proTGFβ1 KD (hLTBP3-proTGFβ1) | (B) hLTBP1, Matrix-associated proTGFβ1 KD (hLTBP1-proTGFβ1) | Kd [1, 3] [pM] | Kd [1, 4] [pM] | (H) G/D (fold bias) [1] [fold] | Kd [2] [pM] | matrix/LTBP-bias in relative affinities between at least one matrix-associated and at least one cell-associated complex [1] | average affinity for human LTBP1-/LTBP3-proTGFβ1 relative to human GARP-/LRRC33-proTGFβ1 complexes (LTBP-biased) ([1]; solution equilibrium titration) |
| --- | --- | --- | --- | --- | --- | --- | --- | --- | --- | --- |
| Ab22: monoclonal antibody; VH SEQ ID NO: 130, VL SEQ ID NO: 15 (antibody, V domains shown) VH: EVQLVESGGGLVQPGGSLRLSCAASGFTFGSFSMNWVRQAPGKGLEWVSYIHSDASTIYYADSVKGRFTISRDNAKNSLYLQMNSLRAEDTAVYYCARGVLDYGDMLDPWGQGTLVTVSS VL: DIQMTQSPSSLSASVGDRVTITCQASQDITNYLNWYQQKPGKAPKLLIYDASNLETGVPSRFSGSGSGTDFTFTISSLQPEDIATYYCQQADNHPPWTFGGGTKVEIK | 2.70E−11 | 2.00E−10 | 3.30E−11 | 5.00E−11 | 42 | 114 | 2.71 | 324 |  |  |
| Ab26: monoclonal antibody; VH SEQ ID NO: 134, VL SEQ ID NO: 15 (antibody, V domains shown) VH: EVQLVESGGGLVQPGGSLRLSCAASGFTFSSFSMDWVRQAPGKGLEWVSYISPDASTIYYADSVKGRFTISRDNAKNTLYLQMNSLRAEDTAVYYCARGVLDYGDMLDPWGQGTLVTVSS VL: DIQMTQSPSSLSASVGDRVTITCQASQDITNYLNWYQQKPGKAPKLLIYDASNLETGVPSRFSGSGSGTDFTFTISSLQPEDIATYYCQQADNHPPWTFGGGTKVEIK | 1.40E−11 | 1.30E−10 | 2.30E−11 | 2.80E−11 | 26 | 72 | 2.77 | 197 |  |  |
| Ab24: monoclonal antibody; VH SEQ ID NO: 132, VL SEQ ID NO: 15 (antibody, V domains shown) VH: EVQLVESGGGLVQPGRSLRLSCAASGFTFSSFAMYWVRQAPGKGLEWVSYISPDASTIYYADSVKGRFTISRDNAKNSLYLQMNSLRAEDTAVYYCARGVLDYGDMLDPWGQGTLVTVSS VL: DIQMTQSPSSLSASVGDRVTITCQASQDITNYLNWYQQKPGKAPKLLIYDASNLETGVPSRFSGSGSGTDFTFTISSLQPEDIATYYCQQADNHPPWTFGGGTKVEIK | 1.90E−11 | 1.80E−10 | 2.10E−11 | 2.40E−11 | 23 | 100 | 4.35 | 222 |  |  |
| Ab11: monoclonal antibody; VH SEQ ID NO: 239, VL SEQ ID NO: 241 (antibody, V domains shown) VH: EVQLLESGGGLVQPGGSLRLSCAASGFTFRNYAMSWVRQAPGKGLEWVSSISGSGGATYYADSVKGRFTISRDNSKNTLYLQMNSLRAEDTAVYYCARVSSGHWDFDYWGQGTLVTVSS VL: DIQLTQSPSSLSASVGDRVTITCRASQSISSYLNWYQQKPGKAPKLLIYAASNLQSGVPSRFSGSGSGTDFTLTISSLQPEDFATYYCQQTYTVPLTFGGGTKVEIK | 3.00E−09 | 6.30E−09 | 1.20E−09 | 1.20E−09 |  | 4650 | 3.87 | 160 | more than five-fold |  |
| Ab20: monoclonal antibody; VH SEQ ID NO: 251, VL SEQ ID NO: 241 (antibody, V domains shown) VH: EVQLLESGGGLVQPGGSLRLSCAASGFTFSAYAMTWVRQAPGKGLEWVSAISGSGGVTYYADSVKGRFTISRDNSKNTLYLQMNSLRAEDTAVYYCARVSSGHWDYDYWGQGTLVTVSS VL: DIQLTQSPSSLSASVGDRVTITCRASQSISSYLNWYQQKPGKAPKLLIYAASNLQSGVPSRFSGSGSGTDFTLTISSLQPEDFATYYCQQTYTVPLTFGGGTKVEIK | 1.10E−09 | 1.60E−09 | 1.80E−10 | 2.20E−10 | 200 |  | 6.75 | 162 | more than five-fold | proTGFβ1 and LTBP3-proTGFβ1 complexes is at least five-fold |

Continued, in another order:

| (E) hGARP, Cell-associated proTGFβ1 KD (hGARP-proTGFβ1) | (F) hLRRC33, Cell-associated proTGFβ1 KD (hLRRC33-proTGFβ1) | (C) hLTBP3, Matrix-associated proTGFβ1 KD (hLTBP3-proTGFβ1) | (B) hLTBP1, Matrix-associated proTGFβ1 KD (hLTBP1-proTGFβ1) | Molecule | Kd [1, 3] [pM] | Kd [1, 4] [pM] | (H) G/D (fold bias) [1] [fold] | Kd [2] [pM] | matrix/LTBP-bias in relative affinities between at least one matrix-associated and at least one cell-associated complex [1] | average affinity for human LTBP1-/LTBP3-proTGFβ1 relative to human GARP-/LRRC33-proTGFβ1 complexes (LTBP-biased) ([1]; solution equilibrium titration) |
| --- | --- | --- | --- | --- | --- | --- | --- | --- | --- | --- |
| 2.20E−11 | 1.40E−10 | 2.60E−11 | 3.10E−11 | Ab30: monoclonal antibody; VH SEQ ID NO: 138, VL SEQ ID NO: 15 (antibody, V domains shown) VH: EVQLVESGGGLVQPGGSLRLSCAASGFTFSSFSMDWVRQAPGKGLEWVSYISPDASTIYYADSVKGRFTISRDNAKNSLYLQMNSLRAEDTAVYYCARGTLDYGDMLDPWGQGTLVTVSS VL: DIQMTQSPSSLSASVGDRVTITCQASQDITNYLNWYQQKPGKAPKLLIYDASNLETGVPSRFSGSGSGTDFTFTISSLQPEDIATYYCQQADNHPPWTFGGGTKVEIK | 29 | 81 | 2.80 | 296 |  |  |
| 1.90E−11 | 9.60E−11 | 1.40E−11 | 1.90E−11 | Ab31: monoclonal antibody; VH SEQ ID NO: 139, VL SEQ ID NO: 15 (antibody, V domains shown) VH: EVQLVESGGGLVQPGGSLRLSCAASGFTFSSFSMDWVRQAPGKGLEWVSYISPDASTIYYADSVKGRFTISRDNAKNTLYLQMNSLRAEDTAVYYCARAVLDYGDMLDPWGQGTLVTVSS VL: DIQMTQSPSSLSASVGDRVTITCQASQDITNYLNWYQQKPGKAPKLLIYDASNLETGVPSRFSGSGSGTDFTFTISSLQPEDIATYYCQQADNHPPWTFGGGTKVEIK | 17 | 58 | 3.41 | 208 |  |  |
| 5.50E−12 | 4.30E−11 | 1.10E−11 | 1.20E−11 | Ab29: monoclonal antibody; VH SEQ ID NO: 137, VL SEQ ID NO: 15 (antibody, V domains shown) VH: EVQLVESGGGLVQPGRSLRLSCAASGFTFSSFAMNWVRQAPGKGLEWVSYISPDASTIYYAGSVKGRFTISRDNAKNSLYLQMNSLRAEDTAVYYCVRAVLDYGDMLDPWGQGTLVTVSS VL: DIQMTQSPSSLSASVGDRVTITCQASQDITNYLNWYQQKPGKAPKLLIYDASNLETGVPSRFSGSGSGTDFTFTISSLQPEDIATYYCQQADNHPPWTFGGGTKVEIK |  | 24 | 2.00 | 155 |  |  |
